Data taken from PMC4475429 (2015).

Biological target: PKA RIα (Homo sapiens, UniProt P10644)
Assay: fluorescence polarization competition vs RI-STAD-3

PKA RIα, sequence (P10644 whole entry): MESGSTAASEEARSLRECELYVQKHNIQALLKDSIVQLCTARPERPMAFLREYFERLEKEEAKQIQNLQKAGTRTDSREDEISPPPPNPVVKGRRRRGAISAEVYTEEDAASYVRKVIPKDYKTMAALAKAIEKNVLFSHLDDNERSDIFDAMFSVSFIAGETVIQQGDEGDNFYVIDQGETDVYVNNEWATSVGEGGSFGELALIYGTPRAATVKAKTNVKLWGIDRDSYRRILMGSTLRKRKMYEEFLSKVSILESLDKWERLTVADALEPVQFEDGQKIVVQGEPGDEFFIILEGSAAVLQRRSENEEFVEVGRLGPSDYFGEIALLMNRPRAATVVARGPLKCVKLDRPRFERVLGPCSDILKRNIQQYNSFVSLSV

- IC50: 1500 nM
B1: Ht31 AKB (peptide)
chain: WKNVLQGGESTKERFENSNIGTA
